Experimental data reported in the supplement of paper PMC7877785.
± gives the uncertainty stated by the source.

Assay: self-splicing fitness, log relative to wild type (ln ratio); higher = more splicing; Tetrahymena group I intron in knt gene, E. coli kanamycin selection, DiMSum; sequences stand for … in CUCUCU…GGAGGGAAAAGUUAUCAGGCAUGCACCUGGUAGCUAGUCUUUAAACCAAUAGAUUGCAUCGGUUUAAAAGGCAAGACCGUCAAAUUGCGGGAAAGGGGUCAACAGCCGUUCAGUACCAAGUCUCAGGGGAAACUUUGAGAUGGCCUUGCAAAGGGUAUGGUAAUAAGCUGACGGACAUGGUCCUAACCACGCAGCCAAGUCCUAAGUCAACAGAUCUUCUGUUGAUAUGGAUGCAGUUCACAGACUAAAUGUCGGUCGGGGAAGAUGUAUUCUUCUCAUAAGAUAUAGUCGGACCUCUCCUUAAUGGGAGCUAGCGGAUGAAGUGAUGCAACACUGGAGCCGCUGGGAACUAAUUUGUAUGCGAAAGUAUAUUGAUUAGUUUUGGAGUACUCGUGGUCG
How it was run: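 Library with all eight P1ex-region intron nucleotides randomised, intron inside the knt kanamycin-resistance gene on pET-22b(+), in E. coli BL21(DE3). Cells grew overnight at 37°C or 30°C on LB agar with or without 25 μg/mL kanamycin (plus 100 μg/mL carbenicillin, 50 μM IPTG, 0.2% rhamnose), in six replicate transformations. Pooled colonies were amplicon-sequenced on Illumina HiSeq 2500. DiMSum fitness is the error-weighted combination of wild-type-normalised replicate fold changes, kanamycin versus none.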

Sequence | self-splicing fitness (ln) (30 °C) | self-splicing fitness (ln) (37 °C)
ACCCAGCAAUAUUACGGCGC | -0.619 ± 0.062 | 0.132 ± 0.096
ACCCAGCAAUAUUACGGCGG | -2.11 ± 0.08 | -1.04 ± 0.11
ACCCAGCAAUAUUACGGGAA | -0.235 ± 0.044 | -0.102 ± 0.055
ACCCAGCAAUAUUACGGGCA | 0.0145 ± 0.067 | -0.0091 ± 0.077
ACCCAGCAAUAUUACGGGCC | -3.49 ± 0.18 | -1.45 ± 0.14
ACCCAGCAAUAUUACGGUCA | -1.55 ± 0.067 | -0.429 ± 0.069
ACCCAGCAAUAUUACGGUGA | -0.516 ± 0.043 | 0.305 ± 0.059
ACCCAGCAAUAUUACGUACA | -1.85 ± 0.087 | -0.804 ± 0.085
ACCCAGCAAUAUUACGUACC | -1.85 ± 0.12 | -1.63 ± 0.15
ACCCAGCAAUAUUACGUCAU | -1.84 ± 0.049 | -0.414 ± 0.059
ACCCAGCAAUAUUACGUGGU | -3.89 ± 0.11 | -2.76 ± 0.14
ACCCAGCAAUAUUACGUUGC | -2.99 ± 0.089 | -0.989 ± 0.076
ACCCAGCAAUAUUACGUUUC | -2.36 ± 0.062 | -1.35 ± 0.082
ACCGAGCAAUAUUACGACUA | -2.66 ± 0.19 | -1.7 ± 0.17
ACCGAGCAAUAUUACGAGAC | -3.81 ± 0.25 | -2.84 ± 0.4
ACCGAGCAAUAUUACGAGAU | -2.96 ± 0.12 | -2.48 ± 0.18
ACCGAGCAAUAUUACGAUGU | -2.71 ± 0.12 | -1.86 ± 0.12
ACCGAGCAAUAUUACGAUUC | -3.37 ± 0.25 | -3.31 ± 0.31
ACCGAGCAAUAUUACGCCGA | -2.48 ± 0.47 | -2.74 ± 0.38
ACCGAGCAAUAUUACGCCGC | -2.66 ± 0.32 | -2.1 ± 0.29
ACCGAGCAAUAUUACGCCUA | – | -1.93 ± 0.28
ACCGAGCAAUAUUACGCGGU | -3.02 ± 0.18 | -1.7 ± 0.2
ACCGAGCAAUAUUACGGAGC | -3.33 ± 0.18 | -1.73 ± 0.13
ACCGAGCAAUAUUACGGCGU | -0.733 ± 0.082 | -0.172 ± 0.11
ACCGAGCAAUAUUACGGGAA | -2.52 ± 0.21 | -2.56 ± 0.22

Sequence | self-splicing fitness (ln) (30 °C) | self-splicing fitness (ln) (37 °C)
ACCGAGCAAUAUUACGGGAG | -3.54 ± 0.2 | -2.69 ± 0.3
ACCGAGCAAUAUUACGGUCG | -3.22 ± 0.23 | -1.68 ± 0.15
ACCGAGCAAUAUUACGGUGC | -2.97 ± 0.21 | -3.33 ± 0.37
ACCGAGCAAUAUUACGUACU | -2.31 ± 0.13 | -0.966 ± 0.14
ACCGAGCAAUAUUACGUAUA | -3.96 ± 0.35 | -2.6 ± 0.27
ACCGAGCAAUAUUACGUAUU | -3.21 ± 0.16 | -1.98 ± 0.17
ACCGAGCAAUAUUACGUCAG | -3.7 ± 0.16 | -2.73 ± 0.17
ACCGAGCAAUAUUACGUCCU | -1.71 ± 0.1 | -0.0861 ± 0.11
ACCGAGCAAUAUUACGUCGG | -4.23 ± 0.39 | -3.13 ± 0.35
ACCGAGCAAUAUUACGUGGG | -2.62 ± 0.18 | -2.87 ± 0.2
ACCUAGCAAUAUUACGAAGC | -1.56 ± 0.11 | -0.832 ± 0.15
ACCUAGCAAUAUUACGACUG | -2.84 ± 0.15 | -1.46 ± 0.18
ACCUAGCAAUAUUACGAGAC | -3.14 ± 0.4 | -1.89 ± 0.24
ACCUAGCAAUAUUACGAGCC | -2.81 ± 0.19 | -2.37 ± 0.3
ACCUAGCAAUAUUACGAGUG | -1.43 ± 0.077 | -0.982 ± 0.092
ACCUAGCAAUAUUACGAGUU | -2.28 ± 0.087 | -1.24 ± 0.1
ACCUAGCAAUAUUACGAUCG | -1.19 ± 0.083 | -0.6 ± 0.1
ACCUAGCAAUAUUACGCCCA | -1.16 ± 0.11 | -0.343 ± 0.12
ACCUAGCAAUAUUACGCCCG | -1.73 ± 0.27 | -1.13 ± 0.28
ACCUAGCAAUAUUACGCCGC | -2.21 ± 0.32 | -2.05 ± 0.4
ACCUAGCAAUAUUACGCGGG | -3.58 ± 0.24 | –
ACCUAGCAAUAUUACGCUAU | -1.89 ± 0.084 | -1.1 ± 0.1
ACCUAGCAAUAUUACGGAUC | -2.65 ± 0.13 | -1.35 ± 0.15
ACCUAGCAAUAUUACGGCCG | -2.22 ± 0.43 | -1 ± 0.34
ACCUAGCAAUAUUACGGCUG | -4.76 ± 0.36 | -2.32 ± 0.18

Sequence | self-splicing fitness (ln) (30 °C) | self-splicing fitness (ln) (37 °C)
ACCUAGCAAUAUUACGGCUU | -0.695 ± 0.076 | 0.252 ± 0.098
ACCUAGCAAUAUUACGGGCA | -0.58 ± 0.11 | 0.19 ± 0.13
ACCUAGCAAUAUUACGGUAA | -2.62 ± 0.13 | -1.89 ± 0.13
ACCUAGCAAUAUUACGUAAG | -1.53 ± 0.065 | -0.172 ± 0.081
ACCUAGCAAUAUUACGUGGG | -3.54 ± 0.17 | -3.4 ± 0.24
ACCUAGCAAUAUUACGUGGU | -3.6 ± 0.14 | -2.95 ± 0.16
ACCUAGCAAUAUUACGUGUU | -3.18 ± 0.1 | -1.4 ± 0.085
ACCUAGCAAUAUUACGUUGG | -2.35 ± 0.092 | -2.46 ± 0.14
ACGAAGCAAUAUUACGAAUA | -2.01 ± 0.26 | 0.937 ± 0.18
ACGAAGCAAUAUUACGACUG | -0.657 ± 0.09 | -0.396 ± 0.098
ACGAAGCAAUAUUACGAGUC | -4.22 ± 0.24 | -2.21 ± 0.19
ACGAAGCAAUAUUACGAUCU | -0.659 ± 0.081 | -0.244 ± 0.082
ACGAAGCAAUAUUACGCAAG | -1.02 ± 0.14 | -0.171 ± 0.18
ACGAAGCAAUAUUACGCAGG | -1.67 ± 0.11 | -1.44 ± 0.12
ACGAAGCAAUAUUACGCGGG | -1.62 ± 0.086 | -0.782 ± 0.1
ACGAAGCAAUAUUACGCGUA | -1.27 ± 0.11 | -0.335 ± 0.084
ACGAAGCAAUAUUACGCUAA | -1.22 ± 0.079 | -0.582 ± 0.083
ACGAAGCAAUAUUACGCUGA | -0.881 ± 0.11 | -0.99 ± 0.1
ACGAAGCAAUAUUACGCUGC | -3.95 ± 0.25 | -1.35 ± 0.18
ACGAAGCAAUAUUACGCUGG | -1.07 ± 0.098 | -0.428 ± 0.11
ACGAAGCAAUAUUACGGAAC | -3.19 ± 0.26 | -1.95 ± 0.25
ACGAAGCAAUAUUACGGGCA | -1.46 ± 0.068 | -0.631 ± 0.075
ACGAAGCAAUAUUACGGUCC | -1.92 ± 0.21 | -0.717 ± 0.21
ACGAAGCAAUAUUACGUAAA | -2.9 ± 0.18 | -1.45 ± 0.19
ACGAAGCAAUAUUACGUAGA | -3.72 ± 0.24 | -2.89 ± 0.27
